Assay results as given in patent US20140134183A1 (CELL MEDICA SWITZERLAND, published 2014).
Residue numbers refer to the chain shown, from its start.

B1: DLX2547 (scFv)
scFv: ADIVMTQSPSTLSASVGDRVTITCQASQSISSYLSWYQQKPGKAPKLLIYRASTLASGVPSRFSGSGSGAEFTLTISSLQPDDFATYYCQNTGGGINIAFGQGTKLEIKRGGGGSGGGGSGGGGSGGGGSEVQLVESGGGLVQPGGSLRLSCTASGFSLSSAAMAWVRQAPGKGLEWVGIIYDSASTYYASWAKGRFTISRDTSKNTVYLQMNSLRAEDTAVYYCARERAIFSGDFVLWGQGTLVTVSS
B2: DLX2586 (scFv)
scFv: EIVMTQSPSTLSASVGDRVIITCQASQSIDNWLSWYQQKPGKAPKLLIYRASTLASGVPSRFSGSGSGAEFTLTISSLQPDDFATYYCQNTGGGVSIAFGQGTKLTVLGGGGGSGGGGSGGGGSGGGGSEVQLVESGGGLVQPGGSLRLSCTVSGFSLSSYAMSWVRQAPGKGLEWIGIIYDSASTYYASWAKGRFTISKDTSKNTVYLQMNSLRAEDTAVYFCARERQIFSGDMDGWGQGTLVTVSS
B3: DLX2528 (scFv)
scFv: EIVMTQSPSTLSASVGDRVTITCQASQSIGNWLAWYQQKPGKAPKLLIYQASNLASGVPSRFSGSGSGTDFTLTISSLQPDDFATYYCQNAGGATTIAFGQGTKLTVLGGGGGSGGGGSGGGGSGGGGSEVQLVESGGGLVQPGGSLRLSCTASGFSLSSAAMAWVRQAPGKGLEWVGIIYDSASTYYASWAKGRFTISRDTSKNTVYLQMNSLRAEDTAVYYCARERAIFSGDFVLWGQGTLVTVSS
B4: DLX2545 (scFv)
scFv: B2 scFv with V153A, Y161A, S164A, K200R, V207L, Q229N, D236V, G237L, L243T
B5: DLX2467 (scFv)
scFv: EIVMTQSPSTLSASVGDRVIITCQASQSIHNWLSWYQQKPGKAPKLLIYRASNLASGVPSRFSGSGSGAEFTLTISSLQPDDFATYYCQNTGGGSSIAFGQGTKLTVLGGGGGSGGGGSGGGGSGGGGSEVQLVESGGGLVQPGGSLRLSCTASGFSLSRAAMAWVRQAPGKGLEWVGIIYDSASTYYASWAKGRFTISRDTSKNTVYLQMNSLRAEDTAVYYCARERMIFSGDFVLWGQGTLVTVSS
B6: DLX2480 (scFv)
scFv: B5 scFv with H30D, N53T, S95I, S96N, R160D, M229Q
B7: DLX2476 (scFv)
scFv: B5 scFv with H30S, N31S, N53T, S95V, R160S, M229D, L237G
B8: DLX2468 (scFv)
scFv: B5 scFv with H30G, W32Y, N53T, T91A, S95T, R160S, A161S, M229N, F235M
B9: DLX2475 (scFv)
scFv: B5 scFv with H30D, N31K, R50Q, N53T, S95V, S96H, R160S, A161Y, M229A, V236K
B10: anti-human IL-1 beta monoclonal IgG antibody MAB201 (antibody, from another filing, V domains shown)
VH: QVTLKESGPGILKPSQTLSLTCSFSGFSLSTSGMGVGWIRQPSGKGLEWLAHIWWDGDESYNPSLKTRLTISKNTSRNQVFLKITTVDTVDTATYFCARNRYDPPWFVDWGQGTLVTVSS
VL: DIQMTQTTSSLSASLGDRVTISCRASQDISNYLSWYQQKPDGTVKLLIYYTSKLHSGVPSRFSGSGSGTDYFLTISNLEQEDIATYFCLQGKMLPWTFGGGTKLEIK
B11: DLX2681 (scFv)
scFv: EIVMTQSPSTLSASVGDRVIITCRASQSIGNWLSWYQQKPGKAPKLLIYRASNLASGVPSRFSGSGSGAEFTLTISSLQPEDFATYYCQNTGGGINIAFGQGTKLTVLGGGGGSGGGGSGGGGSGGGGSEVQLVESGGGNVQPGGSLRLSCTASGFSLSNSAMAWVRQAPGKGLEWVGIIYDSASTYYASWAKGRFTISRDNSKNTVYLQMNSLRAEDTATYYCARERAIFSGDFALWGQGTLVTVSS
B12: DLX2693 (scFv)
scFv: B1 scFv with L141N, S161N, A162S, T203N, V222T, V237A
B13: canakinumab IgG (Novartis, ILARIS) (antibody, V domains shown)
VH: QVQLVESGGGVVQPGRSLRLSCAASGFTFSVYGMNWVRQAPGKGLEWVAIIWYDGDNQYYADSVKGRFTISRDNSKNTLYLQMNGLRAEDTAVYYCARDLRTGPFDYWGQGTLVTVSS
VL: EIVLTQSPDFQSVTPKEKVTITCRASQSIGSSLHWYQQKPDQSPKLLIKYASQSFSGVPSRFSGSGSGTDFTLTINSLEAEDAAAYYCHQSSSLPFTFGPGTKVDIKR

target: T1, recombinant human IL-1 beta (human, UniProt P01584 117-269); assay: cell-based or functional assay

| IC50 of IL-1 beta-induced IL-6 release from human dermal fibroblasts [nM] | Binder |
| --- | --- |
| 0.03 | B1 |
| 0.002 | B2 |
| 0.008 | B3 |
| 0.007 | B4 |

target: T1, recombinant human IL-1 beta; assay: cell-based or functional assay; remark: another data set of the same source

| IC50 of IL-1 beta-induced IL-6 release from human dermal fibroblasts [nM] | Binder |
| --- | --- |
| 0.025 | B5 |
| 0.005 | B6 |
| 0.1 | B7 |
| 0.015 | B8 |
| 0.2 | B9 |

target: T1, recombinant human IL-1 beta; assay: cell-based or functional assay; remark: another data set of the same source

| IC50 of IL-1 beta-induced IL-6 release from human dermal fibroblasts [nM] | Binder |
| --- | --- |
| 0.002 to 0.003 | B10 |

target: T1, recombinant human IL-1 beta; assay: cell-based or functional assay; remark: another data set of the same source

| IC50 of IL-1 beta-induced IL-6 release from human dermal fibroblasts [nM] | Binder |
| --- | --- |
| 0.0006 | B11 |
| 0.0125 | B12 |
| 0.09 | B13 |
